Tested on: plasma proteins
Experiment: Plasma proteins modulated between baseline and day 28 in responders (CR, VGPR, PR; n = 19), Example 6 (Table 13)
Format: in vivo, human
Conditions: plasma protein (OLINK NPX); responders (CR, VGPR, PR; n = 19); itacitinib 200 mg or 300 mg QD with corticosteroids; day 28 vs baseline
Summary of the method: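 Longitudinal comparison, day 28 versus baseline, with steroid-naive (N=10) and steroid-refractory (N=18) patients combined. Proteins measured by OLINK proximity extension, log2 normalized protein expression. Differences tested by t tests, ANOVA, Pearson correlation, P<0.05 significant.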

B1: FR-gamma (protein, UniProt P41439 23-245, looked up)
Folate receptor gamma: QPRSARARTDLLNVCMNAKHHKTQPSPEDELYGQCSPWKKNACCTASTSQELHKDTSRLYNFNWDHCGKMEPTCKRHFIQDSCLYECSPNLGPWIRQVNQSWRKERILNVPLCKEDCERWWEDCRTSYTCKSNWHKGWNWTSGINECPAGALCSTFESYFPTPAALCEGLWSHSFKVSNYSRGSGRCIQMWFDSAQGNPNEEVAKFYAAAMNAGAPSRGIIDS
Fold Change, Decreased Expression from Baseline to Day 28: −1.2115

B2: CCL25 (protein, UniProt O15444 24-150, looked up)
C-C motif chemokine 25: QGVFEDCCLAYHYPIGWAVLRRAWTYRIQEVSGSCNLPAAIFYLPKRHRKVCGNPKSREVQRAMKLLDARNKVFAKLHHNTQTFQAGPHAVKKLSSGNSKLSSSKFSNPISSSKRNVSLLISANSGL
Fold Change, Increased Expression from Baseline to Day 28: 2.106

B3: ADAM 8 (protein, UniProt P78325 17-824, looked up)
Disintegrin and …: IAPSRPWALMEQYEVVLPWRLPGPRVRRALPSHLGLHPERVSYVLGATGHNFTLHLRKNRDLLGSGYTETYTAANGSEVTEQPRGQDHCFYQGHVEGYPDSAASLSTCAGLRGFFQVGSDLHLIEPLDEGGEGGRHAVYQAEHLLQTAGTCGVSDDSLGSLLGPRTAAVFRPRPGDSLPSRETRYVELYVVVDNAEFQMLGSEAAVRHRVLEVVNHVDKLYQKLNFRVVLVGLEIWNSQDRFHVSPDPSVTLENLLTWQARQRTRRHLHDNVQLITGVDFTGTTVGFARVSAMCSHSSGAVNQDHSKNPVGVACTMAHEMGHNLGMDHDENVQGCRCQERFEAGRCIMAGSIGSSFPRMFSDCSQAYLESFLERPQSVCLANAPDLSHLVGGPVCGNLFVERGEQCDCGPPEDCRNRCCNSTTCQLAEGAQCAHGTCCQECKVKPAGELCRPKKDMCDLEEFCDGRHPECPEDAFQENGTPCSGGYCYNGACPTLAQQCQAFWGPGGQAAEESCFSYDILPGCKASRYRADMCGVLQCKGGQQPLGRAICIVDVCHALTTEDGTAYEPVPEGTRCGPEKVCWKGRCQDLHVYRSSNCSAQCHNHGVCNHKQECHCHAGWAPPHCAKLLTEVHAASGSLPVFVVVVLVLLAVVLVTLAGIIVYRKARSRILSRNVAPKTTMGRSNPLFHQAASRVPAKGGAPAPSRGPQELVPTTHPGQPARHPASSVALKRPPPAPPVTVSSPPFPVPVYTRQAPKQVIKPTFAPPVPPVKPGAGAANPGPAEGAVGPKVALKPPIQRKQGAGAPTAP
Fold Change, Decreased Expression from Baseline to Day 28: −1.3896

B4: BCR (protein, UniProt P11274 1-1271, looked up)
Breakpoint cluster region …: MVDPVGFAEAWKAQFPDSEPPRMELRSVGDIEQELERCKASIRRLEQEVNQERFRMIYLQTLLAKEKKSYDRQRWGFRRAAQAPDGASEPRASASRPQPAPADGADPPPAEEPEARPDGEGSPGKARPGTARRPGAAASGERDDRGPPASVAALRSNFERIRKGHGQPGADAEKPFYVNVEFHHERGLVKVNDKEVSDRISSLGSQAMQMERKKSQHGAGSSVGDASRPPYRGRSSESSCGVDGDYEDAELNPRFLKDNLIDANGGSRPPWPPLEYQPYQSIYVGGMMEGEGKGPLLRSQSTSEQEKRLTWPRRSYSPRSFEDCGGGYTPDCSSNENLTSSEEDFSSGQSSRVSPSPTTYRMFRDKSRSPSQNSQQSFDSSSPPTPQCHKRHRHCPVVVSEATIVGVRKTGQIWPNDGEGAFHGDADGSFGTPPGYGCAADRAEEQRRHQDGLPYIDDSPSSSPHLSSKGRGSRDALVSGALESTKASELDLEKGLEMRKWVLSGILASEETYLSHLEALLLPMKPLKAAATTSQPVLTSQQIETIFFKVPELYEIHKEFYDGLFPRVQQWSHQQRVGDLFQKLASQLGVYRAFVDNYGVAMEMAEKCCQANAQFAEISENLRARSNKDAKDPTTKNSLETLLYKPVDRVTRSTLVLHDLLKHTPASHPDHPLLQDALRISQNFLSSINEEITPRRQSMTVKKGEHRQLLKDSFMVELVEGARKLRHVFLFTDLLLCTKLKKQSGGKTQQYDCKWYIPLTDLSFQMVDELEAVPNIPLVPDEELDALKIKISQIKNDIQREKRANKGSKATERLKKKLSEQESLLLLMSPSMAFRVHSRNGKSYTFLISSDYERAEWRENIREQQKKCFRSFSLTSVELQMLTNSCVKLQTVHSIPLTINKEDDESPGLYGFLNVIVHSATGFKQSSNLYCTLEVDSFGYFVNKAKTRVYRDTAEPNWNEEFEIELEGSQTLRILCYEKCYNKTKIPKEDGESTDRLMGKGQVQLDPQALQDRDWQRTVIAMNGIEVKLSVKFNSREFSLKRMPSRKQTGVFGVKIAVVTKRERSKVPYIVRQCVEEIERRGMEEVGIYRVSGVATDIQALKAAFDVNNKDVSVMMSEMDVNAIAGTLKLYFRELPEPLFTDEFYPNFAEGIALSDPVAKESCMLNLLLSLPEANLLTFLFLLDHLKRVAEKEAVNKMSLHNLATVFGPTLLRPSEKESKLPANPSQPITMTDSWSLEVMSQVQVLLYFLQLEAIPAPDSKRQSILFSTEV
Fold Change, Decreased Expression from Baseline to Day 28: −1.8219

B5: PAR-1 (protein, UniProt P25116 42-425, looked up)
Proteinase-activated receptor …: SFLLRNPNDKYEPFWEDEEKNESGLTEYRLVSINKSSPLQKQLPAFISEDASGYLTSSWLTLFVPSVYTGVFVVSLPLNIMAIVVFILKMKVKKPAVVYMLHLATADVLFVSVLPFKISYYFSGSDWQFGSELCRFVTAAFYCNMYASILLMTVISIDRFLAVVYPMQSLSWRTLGRASFTCLAIWALAIAGVVPLLLKEQTIQVPGLNITTCHDVLNETLLEGYYAYYFSAFSAVFFFVPLIISTVCYVSIIRCLSSSAVANRSKKSRALFLSAAVFCIFIICFGPTNVLLIAHYSFLSHTSTTEAAYFAYLLCVCVSSISCCIDPLIYYYASSECQRYVYSILCCKESSDPSSYNSSGQLMASKMDTCSSNLNNSIYKKLLT
Fold Change, Decreased Expression from Baseline to Day 28: −1.2074

B6: BID (protein, UniProt P55957 1-195, looked up)
BH3-interacting domain death …: MDCEVNNGSSLRDECITNLLVFGFLQSCSDNSFRRELDALGHELPVLAPQWEGYDELQTDGNRSSHSRLGRIEADSESQEDIIRNIARHLAQVGDSMDRSIPPGLVNGLALQLRNTSRSEEDRNRDLATALEQLLQAYPRDMEKEKTMLVLALLLAKKVASHTPSLLRDVFHTTVNFINQNLRTYVRSLARNGMD
Fold Change, Decreased Expression from Baseline to Day 28: −1.382

B7: CD69 (protein, UniProt Q07108 1-199, looked up)
Early activation antigen CD69: MSSENCFVAENSSLHPESGQENDATSPHFSTRHEGSFQVPVLCAVMNVVFITILIIALIALSVGQYNCPGQYTFSMPSDSHVSSCSEDWVGYQRKCYFISTVKRSWTSAQNACSEHGATLAVIDSEKDMNFLKRYAGREEHWVGLKKEPGHPWKWSNGKEFNNWFNVTGSDKCVFLKNTEVSSMECEKNLYWICNKPYK
Fold Change, Decreased Expression from Baseline to Day 28: −1.7621

B8: AZU1 (protein, UniProt P20160 27-248, looked up)
Azurocidin: IVGGRKARPRQFPFLASIQNQGRHFCGGALIHARFVMTAASCFQSQNPGVSTVVLGAYDLRRRERQSRQTFSISSMSENGYDPQQNLNDLMLLQLDREANLTSSVTILPLPLQNATVEAGTRCQVAGWGSQRSGGRLSRFPRFVNVTVTPEDQCRPNNVCTGVLTRRGGICNGDGGTPLVCEGLAHGVASFSLGPCGRGPDFFTRVALFRDWIDGVLNNPGP
Fold Change, Decreased Expression from Baseline to Day 28: −2.0976

B9: SDC4 (protein, UniProt P31431 19-198, looked up)
Syndecan-4: ESIRETEVIDPQDLLEGRYFSGALPDDEDVVGPGQESDDFELSGSGDLDDLEDSMIGPEVVHPLVPLDNHIPERAGSGSQVPTEPKKLEENEVIPKRISPVEESEDVSNKVSMSSTVQGSNIFERTEVLAALIVGGIVGILFAVFLILLLMYRMKKKDEGSYDLGKKPIYKKAPTNEFYA
Fold Change, Decreased Expression from Baseline to Day 28: −1.4678

B10: CLEC5A (protein, UniProt Q9NY25 1-188, looked up)
C-type lectin domain family 5 …: MNWHMIISGLIVVVLKVVGMTLFLLYFPQIFNKSNDGFTTTRSYGTVSQIFGSSSPSPNGFITTRSYGTVCPKDWEFYQARCFFLSTSESSWNESRDFCKGKGSTLAIVNTPEKLKFLQDITDAEKYFIGLIYHREEKRWRWINNSVFNGNVTNQNQNFNCATIGLTKTFDAASCDISYRRICEKNAK
Fold Change, Decreased Expression from Baseline to Day 28: −1.3618

B11: RELT (protein, UniProt Q969Z4 26-430, looked up)
Tumor necrosis factor …: STTLWQCPPGEEPDLDPGQGTLCRPCPPGTFSAAWGSSPCQPHARCSLWRRLEAQVGMATRDTLCGDCWPGWFGPWGVPRVPCQPCSWAPLGTHGCDEWGRRARRGVEVAAGASSGGETRQPGNGTRAGGPEETAAQYAVIAIVPVFCLMGLLGILVCNLLKRKGYHCTAHKEVGPGPGGGGSGINPAYRTEDANEDTIGVLVRLITEKKENAAALEELLKEYHSKQLVQTSHRPVSKLPPAPPNVPHICPHRHHLHTVQGLASLSGPCCSRCSQKKWPEVLLSPEAVAATTPVPSLLPNPTRVPKAGAKAGRQGEITILSVGRFRVARIPEQRTSSMVSEVKTITEAGPSWGDLPDSPQPGLPPEQQALLGSGGSRTKWLKPPAENKAEENRYVVRLSESNLVI
Fold Change, Decreased Expression from Baseline to Day 28: −1.3317

B12: CD5 (protein, UniProt P06127 25-495, looked up)
T-cell surface glycoprotein …: RLSWYDPDFQARLTRSNSKCQGQLEVYLKDGWHMVCSQSWGRSSKQWEDPSQASKVCQRLNCGVPLSLGPFLVTYTPQSSIICYGQLGSFSNCSHSRNDMCHSLGLTCLEPQKTTPPTTRPPPTTTPEPTAPPRLQLVAQSGGQHCAGVVEFYSGSLGGTISYEAQDKTQDLENFLCNNLQCGSFLKHLPETEAGRAQDPGEPREHQPLPIQWKIQNSSCTSLEHCFRKIKPQKSGRVLALLCSGFQPKVQSRLVGGSSICEGTVEVRQGAQWAALCDSSSARSSLRWEEVCREQQCGSVNSYRVLDAGDPTSRGLFCPHQKLSQCHELWERNSYCKKVFVTCQDPNPAGLAAGTVASIILALVLLVVLLVVCGPLAYKKLVKKFRQKKQRQWIGPTGMNQNMSFHRNHTATVRSHAENPTASHVDNEYSQPPRNSHLSAYPALEGALHRSSMQPDNSSDSDYDLHGAQRL
Fold Change, Decreased Expression from Baseline to Day 28: −1.9942

B13: PSP-D (protein, UniProt P35247 21-375, looked up)
Pulmonary …: AEMKTYSHRTMPSACTLVMCSSVESGLPGRDGRDGREGPRGEKGDPGLPGAAGQAGMPGQAGPVGPKGDNGSVGEPGPKGDTGPSGPPGPPGVPGPAGREGPLGKQGNIGPQGKPGPKGEAGPKGEVGAPGMQGSAGARGLAGPKGERGVPGERGVPGNTGAAGSAGAMGPQGSPGARGPPGLKGDKGIPGDKGAKGESGLPDVASLRQQVEALQGQVQHLQAAFSQYKKVELFPNGQSVGEKIFKTAGFVKPFTEAQLLCTQAGGQLASPRSAAENAALQQLVVAKNEAAFLSMTDSKTEGKFTYPTGESLVYSNWAPGEPNDDGGSEDCVEIFTNGKWNDRACGEKRLVVCEF
Fold Change, Decreased Expression from Baseline to Day 28: −1.2426
